Assay results taken from patent US20210395379A1 (NUMAB THERAPEUTICS, published 2021).
Substitutions are numbered along the chain they refer to. Names may count otherwise.

Columns and labels:
[1] = target: T1, Fc tagged human CD137 (R&D Systems, cat. 838-4B-100) (human, UniProt Q07011 24-186); test: SPR (Biacore T200), Fc tagged human CD137 captured by anti-human Fc, scFv as analyte
T1 construct: Bought Fc chimera; also called CD137 Fc chimera; human CD137 (tagged with Fc); not shown: Fc tag of the bought chimera
Protocol: In this experiment, Fc tagged human CD137 (R&D Systems, cat. 838-4B-100) was captured using the Human Antibody Capture kit from GE healthcare (cat. BR-1008-39). After each analyte injection cycle, the anti-human Fc-specific IgG was regenerated and new antigen was captured. The scFvs were injected as analyte using a dose response multi-cycle kinetic assay over the captured CD137 with concentrations of the analyte ranging from 0.19 to 45 nM (three-fold dilutions steps) diluted in running buffer. Association and dissociation time were set to 300 s and 720 s, respectively. The obtained sensorgrams were fitted using the 1:1 binding model.

[2] = target: CD137 (form used for the alanine mutants of PRO1359 not stated) (Homo sapiens (Human), UniProt Q07011 24-186, limits assumed); test: assay not described
[3] = target: human CD137 expressed on Jurkat cells (human, UniProt Q07011 24-255); test: cell-based or functional assay
human serum albumin = target: T2, human serum albumin (human, UniProt P02768 25-609); test: SPR (Biacore T200), serum albumin amine-coupled to CM5 chip, pH 5.5
T2 construct: Amine-coupled to a CM5 chip; also called human SA; HSA
Protocol: Affinity of molecules to serum albumin (SA) of the different species was determined by SPR measurements using a Biacore T200 device (GE Healthcare). SA was directly coupled to a CM5 sensor chip (GE Healthcare) using amine coupling chemistry. […] The assay was run in a 1×PBS-Tween buffer at pH 5.5.

Fc tagged human PD-L1 = target: T3, Fc tagged human PD-L1 (human, UniProt Q9NZQ7 19-238, limits assumed); test: SPR (Biacore T200), Fc tagged PDL1 captured by anti-human Fc, molecule as analyte 0.18-45 nM
T3 construct: not shown: Fc tag
Protocol: (§1) Affinity to PDL1 was determined by SPR measurements using a Biacore T200 device (GE Healthcare). In this experiment, Fc tagged PDL1 from different species was captured using the Human Antibody Capture kit from GE Healthcare (cat. BR-1008-39). After each analyte injection cycle, the anti-human Fc-specific IgG was regenerated and new antigen was captured. For all formats, the multispecific molecules were injected as analyte using a dose response multi-cycle kinetic assay with concentrations of the analyte ranging from 0.18 to 45 nM (two-fold dilutions steps) diluted in running buffer. Association and dissociation time were set to 300 s and 720 s, respectively. The apparent dissociation (kd) and association (kₐ) rate constants and the apparent dissociation equilibrium constant (KD) were calculated using one-to-one Langmuir binding model. Affinity to CD137 of the different species was determined using the identical setup as for PDL1 with the exception that CD137-Fc chimeric proteins from different species were captured by the immobilized antibody.

[4] = target: T1, Fc tagged human CD137 (R&D Systems, …); test: SPR (Biacore T200), CD137-Fc captured by anti-human Fc, molecule as analyte 0.18-45 nM
Protocol: as §1

B1: PRO1704 (38-27-A11 sc07) (scFv)
scFv: DIQMTQSPSSLSASVGDRVTITCQASQSISNRLAWYQQKPGKAPKLLIYSASTLASGVPSRFSGSGSGTDFTLTISSLQPEDFATYYCQSTYYGNDGNAFGCGTKVTVLGGGGGSGGGGSGGGGSGGGGSEVQLVESGGGLVQPGGSLRLSCAASGFSFSANYYPCWVRQAPGKCLEWIGCIYGGSSDITYDANWTKGRFTISRDNSKNTVYLQMNSLRAEDTAVYYCARSAWYSGWGGDLWGQGTLVTVSS
notes: VL-linker-VH, CDR graft with interdomain disulfide (VL-T141C)
- Kd [1]: 3.07 nM
- koff [1]: 0.00353 s⁻¹
- kon [1]: 1.15e+06 M⁻¹ s⁻¹

B2: PRO1359 with TYR 191 mutated to alanine (scFv)
scFv: B1 scFv with C102T, C175G, Y191A
- fold reduction of affinity against unmutated PRO1359 [2]: > 1000 fold

B3: PRO1359 with TRP 233 mutated to alanine (scFv)
scFv: B1 scFv with C102T, C175G, W233A
- fold reduction of affinity against unmutated PRO1359 [2]: > 1000 fold

B4: PRO1480 (other)
chain: DIQMTQSPASLSASVGDRVTITCQASQSIGTYLAWYQQKPGKPPKLLIYRAFILASGVPSRFSGSGSGTDFTLTISSLQPEDFATYYCQSNFYSDSTTIGPNAFGTGTKVTVLGGGGGSEVQLVESGGGLVQPGGSLRLSCAASGFSFSANYYPCWVRQAPGKGLEWIGCIYGGSSDITYDANWTKGRFTISRDNSKNTVYLQMNSLRAEDTAVYYCARSAWYSGWGGDLWGQGTLVTVSSGGGGSGGGGSGGGGSGGGGSIQMTQSPSSLSASVGDRVTITCQASQSISNRLAWYQQKPGKAPKLLIYSASTLASGVPSRFSGSGSGTDFTLTISSLQPEDFATYYCQSTYYGNDGNAFGTGTKVTVLGGGGGSEVQLVESGGGLVQPGGSLRLSCAASGFSFNSDYWIYWVRQAPGKGLEWIASIYGGSSGNTQYASWAQGRFTISRDNSKNTVYLQMNSLRAEDTAVYFCARGYVDYGGATDLWGQGTLVTVSSGGGGSGGGGSIQMTQSPSSLSASVGDRVTITCQSSESVYSNNQLSWYQQKPGQPPKLLIYDASDLASGVPSRFSGSGSGTDFTLTISSLQPEDFATYYCAGGFSSSSDTAFGGGTKLTVLGGGGGSGGGGSGGGGSGGGGSEVQLVESGGGLVQPGGSLRLSCAASGFSLSSNAMGWVRQAPGKGLEYIGIISVGGFTYYASWAKGRFTISRDNSKNTVYLQMNSLRAEDTATYFCARDRHGGDSSGAFYLWGQGTLVTVSS
notes: Trispecific scDb-scFv; CD137 arm derived from 38-27-A11 sc02; also called PRO1480 (38-27-A11); trispecific anti-PDL1xCD137xHSA scDb-scFv
- IC50 (ng/ml), activation of NF-kB reporter gene, HCC827 + IFNg, 6 h, with HSA [3]: 6.44 ng/mL
- IC50 (ng/ml), activation of NF-kB reporter gene, HCC827 + IFNg, 24 h, with HSA [3]: 4.67 ng/mL
- Kd (human serum albumin): 1.03 nM
- koff (human serum albumin): 0.000337 s⁻¹
- Kd (Fc tagged human PD-L1): 0.015 nM
- koff (Fc tagged human PD-L1): 5.1e-05 s⁻¹

B5: PRO1481 (other)
chain: B4 chain with V121S, Y216F, Q233P, I262F, M264L, A303P
notes: Trispecific scDb-scFv; CD137 arm derived from 38-27-A11 sc03
- IC50 (ng/ml), activation of NF-kB reporter gene, HCC827 + IFNg, 6 h, with HSA [3]: 7.22 ng/mL
- IC50 (ng/ml), activation of NF-kB reporter gene, HCC827 + IFNg, 24 h, with HSA [3]: 5.51 ng/mL
- koff (Fc tagged human PD-L1): 4.3e-05 s⁻¹

B6: PRO1186 (other)
chain: DIQMTQSPSSLSASVGDRVTITCQASQSIGTYLAWYQQKPGKAPKLLIYRAFILASGVPSRFSGSGSGTDFTLTISSLQPEDFATYYCQSNFYSDSTTIGPNAFGTGTKVTVLGGGGGSQVQLQESGPGLVKPSETLSLTCKVSGFSFSNSYWICWIRQPPGKGLEWIGCTFVGSSDSTYYANWAKGRVTISVDSSKNQFSLKLSSVTAADTAVYYCARHPSDAVYGYANNLWGQGTLVTVSSGGGGSGGGGSGGGGSGGGGSDIQMTQSPSSLSASVGDRVTITCQASQSINNVLAWYQQKPGKAPKLLIYRASTLASGVPSRFSGSGSGTDFTLTISSLQPEDFATYYCQSSYGNYGDFGTGTKVTVLGGGGGSQVQLQESGPGLVKPSETLSLTCKVSGFSFNSDYWIYWIRQPPGKGLEWIGSIYGGSSGNTQYASWAQGRVTISVDSSKNQFSLKLSSVTAADTAVYYCARGYVDYGGATDLWGQGTLVTVSSGGGGSGGGGSVVMTQSPSSLSASVGDRVTITCQASQIISSRSAWYQQKPGQPPKLLIYQASKLASGVPSRFSGSGSGTDFTLTISSLQPEDFATYYCQCTYIDSNFGAFGGGTKLTVLGGGGGSGGGGSGGGGSGGGGSEVQLVESGGGLVQPGGSLRLSCAASGFSFSSSYWICWVRQAPGKGLEWVGCVFTGDGTTYYASWAKGRFTISRDNSKNTVYLQMNSLRAEDTATYFCARPVSVYYYGMDLWGQGTLVTVSS
notes: Trispecific scDb-scFv with a different anti-CD137 domain; also called PR01186
- kon [4]: 190000 M⁻¹ s⁻¹

B7: PRO885 (bispecific antibody)
chain: DIQMTQSPSSLSASVGDRVTITCQASQSINDYLAWYQQKPGKAPKLLIYKASTLASGVPSRFSGSGSGTDFTLTISSLQPEDFATYYCQQGYIITDIDNVFGTGTKVTVLGGGGGSQVQLQESGPGLVKPSETLSLTCKVSGFSFSNSYWICWIRQPPGKGLEWIGCTFVGSSDSTYYANWAKGRVTISVDSSKNQFSLKLSSVTAADTAVYYCARHPSDAVYGYANNLWGQGTLVTVSSGGGGSGGGGSGGGGSGGGGSIQMTQSPSSLSASVGDRVTITCQASQSINNVLAWYQQKPGKAPKLLIYRASTLASGVPSRFSGSGSGTDFTLTISSLQPEDFATYYCQSSYGNYGDFGTGTKVTVLGGGGGSQVQLQESGPGLVKPSETLSLTCKVSGFSFSSGYDMCWIRQPPGKGLEWIGCVVAGSVDITYYASWAKGRVTISVDSSKNQFSLKLSSVTAADTAVYYCARKDAYSDAFNLWGQGTLVTVSS
- Kd [4]: 3.2 nM
- Kd (Fc tagged human PD-L1): 0.065 nM
